From article PMC3072108 (Cell, 2011)

B1: Ube2S (enzyme, UniProt Q16763 1-222, looked up)
chain: MNSNVENLPPHIIRLVYKEVTTLTADPPDGIKVFPNEEDLTDLQVTIEGPEGTPYAGGLFRMKLLLGKDFPASPPKGYFLTKIFHPNVGANGEICVNVLKRDWTAELGIRHVLLTIKCLLIHPNPESALNEEAGRLLLENYEEYAARARLLTEIHGGAGGPSGRAEAGRALASGTEASSTDPGAPGGPGGAEGPMAKKHAGERDKKLAAKKKTDKKRALRRL
B2: UBC-domain of Ube2S (domain or fragment)
chain: MNSNVENLPPHIIRLVYKEVTTLTADPPDGIKVFPNEEDLTDLQVTIEGPEGTPYAGGLFRMKLLLGKDFPASPPKGYFLTKIFHPNVGANGEICVNVLKRDWTAELGIRHVLLTIKCLLIHPNPESALNEEAGRLLLENYEEYAARARLLTEIHG

Molecular target: ubiquitin (UniProt P0CG48 1-76)
Experiment: NMR titration

Row | Binder | Kd [mM]
1 | B1 | 1.7 ± 0.08
2 | B2 | 1.11 ± 0.08
